Paper PMC7307101

What was measured:
[1] = biological target: trimeric influenza virus polymerase of A/England/195/2009(pH1N1) (PB2, PB1-Gluc1, PA); assay: split-luciferase assay; details: parent: est. 1.5; read off a plot
[2] = biological target: trimeric influenza virus polymerase of A/turkey/England/50-92/1991(H5N1) (PB2, PB1-Gluc1, PA); assay: split-luciferase assay; details: parent: est. 30; read off a plot

**Q.** For “human ANP32A-Gluc2 (from UniProt P39687) I106V; P156S”, which response [1] is on record?
**A.** 3.5 NLR

**Q.** And the response [2]?
**A.** 55 NLR
